Test results published in publication PMC10248533 (The Journal of Biological Chemistry, 2023).

Biological target: the molecule itself
Experiment: native MS; 50 μM protein exchanged into 200 mM ammonium acetate pH 7.4; nano electrospray, Q Exactive UHMR

B1: AtGet3dΔ1–57 from His8-SUMO-GSx2-AtGet3dΔ1–57 (native mass spectrometry sample) (natural protein, Arabidopsis thaliana, UniProt Q6DYE4 58-455, looked up)
chain: TKFVTFLGKGGSGKTTAAVFAAQHYALAGLSTCLVIHNQDPSAEFLLGSKIGTSPTLINDNLSVIRLETTKMLLEPLKQLKQADARLNMTQGVLEGVVGEELGVLPGMDSIFSMLELERLVGFFRQATRKNHKGKPFDVIIYDGISTEETLRMIGLSSKTRLYAKYLRSLAEKTDLGRLTSPSIMRFVDESMNINSNKSPFDGMTSPAMWDTLERFLETGASAWRDPERFRSFLVMDPNNPMSVKAALRYWGCTVQAGSHVSGAFAISSSHLTSQIPKADFVPLPFASASVPFTITGLDWDKILLDQANSSIRELLSETVSHGTSLTQTVMFDTAKKLVTLFMPGFEKSEIKLYQYRGGSELLIEAGDQRRVIHLPSQIQGKVGGAKFVDRSLIVTMR
notes: Get3d, Arabidopsis thaliana, UniProt Q6DYE4, without the first 57 amino acids (chloroplast transit peptide); Dialysed with Ulp1 after Ni-NTA; the GSx2 linker between SUMO and AtGet3d probably stays on the N-terminus after cleavage (surmised); Copurifies with small molecules of about 750 Da; source: E. coli NiCo21(DE3), purified (Ni-NTA, Ulp1 digestion, Superdex 200 SEC); not shown: His8, …
stoichiometry N: 2
